Consider two molecules from paper PMC3755756 (Developmental cell, 2013).

The assay addresses ubiquitin (15N-Ub) (UniProt P0CG48 1-76). The experiment in a line: NMR titration.

B1: V domain of HD-PTP (domain or fragment, human, UniProt Q9H3S7 401-714, looked up)
chain: MQLDPETVDNLDAYSHIPPQLMEKCAALSVRPDTVRNLVQSMQVLSGVFTDVEASLKDIRDLLEEDELLEQKFQEAVGQAGAISITSKAELAEVRREWAKYMEVHEKASFTNSELHRAMNLHVGNLRLLSGPLDQVRAALPTPALSPEDKAVLQNLKRILAKVQEMRDQRVSLEQQLRELIQKDDITASLVTTDHSEMKKLFEEQLKKYDQLKVYLEQNLAAQDRVLCALTEANVQYAAVRRVLSDLDQKWNSTLQTLVASYEAYEDLMKKSQEGRDFYADLESKVAALLERTQSTCQAREAARQQLLDRELKK
Take B1: the Kd – broadly, the free concentration of one partner at which half of the binding sites on the other are occupied at equilibrium, for simple one-to-one binding – is roughly 50 µM.

B2: V domain of human Alix (domain or fragment)
chain: FEKMVPVSVQQSLAAYNQRKADLVNRSIAQMREATTLANGVLASLNLPAAIEDVSGDTVPQSILTKSRSVIEQGGIQTVDQLIKELPELLQRNREILDESLRLLDEEEATDNDLRAKFKERWQRTPSNELYKPLRAEGTNFRTVLDKAVQADGQVKECYQSHRDTIVLLCKPEPELNAAIPSANPAKTMQGSEVVNVLKSLLSNLDEVKKEREGLENDLKSVNFDMTSKFLTALAQDGVINEEALSVTELDRVYGGLTTKVQESLKKQEGLLKNIQVSHQEFSKMKQSNNEANLREEVLKNLATAYDNFVELVANLKEGTKFYNELTEILVRFQNKCSDIVFARKTER
For the molecule B2, the Kd was roughly 50 µM.
